From IntAct's records for PubMed 28007894

B1: Serine/threonine/tyrosine-interacting protein (Homo sapiens), Q8WUJ0 (parent)
chain: MEDVKLEFPSLPQCKEDAEEWTYPMRREMQEILPGLFLGPYSSAMKSKLPVLQKHGITHIICIRQNIEANFIKPNFQQLFRYLVLDIADNPVENIIRFFPMTKEFIDGSLQMGGKVLVHGNAGISRSAAFVIAYIMETFGMKYRDAFAYVQERRFCINPNAGFVHQLQEYEAIYLAKLTIQMMSPLQIERSLSVHSGTTGSLKRTHEEEDDFGTMQVATAQNG

Variants of: B1
Conditions: with FBXW7, Q969H0-1
FBXW7, Q969H0-1, sequence (Q969H0 whole entry): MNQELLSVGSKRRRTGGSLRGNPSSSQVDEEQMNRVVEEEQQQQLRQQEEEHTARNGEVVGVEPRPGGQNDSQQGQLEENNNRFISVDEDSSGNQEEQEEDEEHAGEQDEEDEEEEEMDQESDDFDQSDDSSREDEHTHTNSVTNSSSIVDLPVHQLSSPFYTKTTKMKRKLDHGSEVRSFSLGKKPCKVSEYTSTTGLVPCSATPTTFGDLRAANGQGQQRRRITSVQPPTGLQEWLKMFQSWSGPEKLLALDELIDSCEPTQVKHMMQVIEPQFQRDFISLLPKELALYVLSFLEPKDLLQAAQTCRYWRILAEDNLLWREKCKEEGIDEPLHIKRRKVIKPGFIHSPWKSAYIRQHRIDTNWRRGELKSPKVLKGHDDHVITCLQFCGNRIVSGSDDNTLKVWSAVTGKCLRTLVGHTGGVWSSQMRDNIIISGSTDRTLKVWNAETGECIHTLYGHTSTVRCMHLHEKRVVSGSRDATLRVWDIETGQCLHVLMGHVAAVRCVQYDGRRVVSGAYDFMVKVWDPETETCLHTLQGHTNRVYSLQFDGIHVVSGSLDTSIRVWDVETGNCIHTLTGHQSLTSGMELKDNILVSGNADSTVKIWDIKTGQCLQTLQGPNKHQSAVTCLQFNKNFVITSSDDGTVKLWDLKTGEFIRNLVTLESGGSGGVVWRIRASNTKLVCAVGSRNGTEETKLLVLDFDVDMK

Row | Variant | effect of a mutation on the interaction
1 | MEDVKLEFPSLPQCKEDAEEWTYPMRREMQEILPGLFLGPYSSAMKSKLPVLQKHGITHIICIRQNIEANFIKPNFQQLFRYLVLDIADNPVENIIRFFPMTKEFIDGSLQMGGKVLVHCNAGISRSAAFVIAYIMETFGMKYRDAFAYVQERRFCINPNAGFVHQLQEYEAIYLAKLTIQMMSPLQIERSLSVHSGTTGSLKRTHEEEDDFGTMQVATAQNG [G120C] | with no effect
